Data: PMC7617670

Target: PabA variant aY127A (Escherichia coli) (UniProt P00903)
Experiment: ITC; 250 μM PabB titrated into 25 μM PabA in the cell; 25 °C; 50 mM Tris/HCl pH 7.5, 50 mM KCl, 5 mM MgCl2; without Cho and Gln; one set of sites

Kd: > 8 µM
Substance: PabB, synthase subunit of aminodeoxychorismate synthase (ADCS) from Escherichia coli, wild type (from UniProt P05041 1-453) (enzyme)
